Laboratory results from PMC2890295 (Biochemistry, 2010).

Substrate: O=S(O)O
Experiment: purified protein
Format: biochemical, Homo sapiens
Conditions: pH 8.0, cytochrome c as electron acceptor, no added chloride

B1: wt hSO (human sulfite oxidase) (Homo sapiens) (protein)
chain: ESTHIYTKEEVSSHTSPETGIWVTLGSEVFDVTEFVDLHPGGPSKLMLAAGGPLEPFWALYAVHNQSHVRELLAQYKIGELNPEDKVAPTVETSDPYADDPVRHPALKVNSQRPFNAEPPPELLTENYITPNPIFFTRNHLPVPNLDPDTYRLHVVGAPGGQSLSLSLDDLHNFPRYEITVTLQCAGNRRSEMTQVKEVKGLEWRTGAISTARWAGARLCDVLAQAGHQLCETEAHVCFEGLDSDPTGTAYGASIPLARAMDPEAEVLLAYEMNGQPLPRDHGFPVRVVVPGVVGARHVKWLGRVSVQPEESYSHWQRRDYKGFSPSVDWETVDFDSAPSIQELPVQSAITEPRDGETVESGEVTIKGYAWSGGGRAVIRVDVSLDGGLTWQVAKLDGEEQRPRKAWAWRLWQLKAPVPAGQKELNIVCKAVDDGYNVQPDTVAPIWNLRGVLSNAWHRVHVYVSP
Q: For B1, which kcat is on record?
A: The kcat was 27 ± 2 s⁻¹.
